Assay [1] deals with SARS-CoV-2 S receptor binding domain (RBD) (SARS-CoV-2 (Wuhan-Hu-1), UniProt P0DTC2 329-538). The assay is described as follows: ELISA. On the technique in general: An ELISA detects its analyte on a solid surface through an enzyme-linked reagent.
Assay [2] has as its target SARS-CoV-2 S N-terminal domain (NTD) (SARS-CoV-2 (Wuhan-Hu-1), UniProt P0DTC2 14-294). The assay can be described thus: ELISA.

B1: 10H7 bivalent human heavy-chain-only antibody (HCAb) (antibody, V domains shown)
VH: EVQLVESGGGLIQPGGSLRLSCAASGFTVSNNYMAWVRQAPGKGLEWISVIYANGNTYYADSVKGRFTISRDNSKNVLFLQMSGLRAEDTAVYYCSSRYGSGSEELYDIWGQGTMVTVSS
What is called EC50 is the concentration needed to bring the measured effect to its halfway point. B1: in assay [1], the midpoint of the response, the EC50, lay at 3.09 ng/mL.

B2: 14D2 bivalent human heavy-chain-only antibody (HCAb) (antibody, V domains shown)
VH: EVQLVETGGGLIQPGGSLRLSCAASGFQVSNVYMSWVRQAPGKGQEWVSVLYSGGNTYYADSVKGRFTISRDNSKNMVYLQMNSLRVEDTAVYYCARGWEGVTGTTGPWGQGTLVTVSS
On to B2, for which the response in assay [1] was half-maximal at 3.48 ng/mL (EC50).

B3: 7D1 bivalent human heavy-chain-only antibody (HCAb) (antibody, V domains shown)
VH: EVQLVETGGGLIQPGGSLRLSCAASGFQVSSSYMSWVRQAPGKGLEWVSVIYSGGGTYYADSVKGRFTISRDISKNTLYLQMNNLRAEDTAMYYCARGWTGVTATTGPWGQGTLVTVSS
In the case of B3, in assay [1], the EC50 was 4.11 ng/mL.

B4: 11C12 bivalent human heavy-chain-only antibody (HCAb) (antibody, V domains shown)
VH: EVQLVESGGGLVQPGGSLRLSCAASGFTFSSSWMYWVRHIPGKGLEWVSRTTSDVASTFYADSVKGRFTVSRDNAKNMLYLQMNSLRAEDTAVYYCTRDFHDLWSGYYNHWGQGTLVTVSS
For B4, the EC50 in assay [2] worked out at 181 ng/mL.

B5: 10D12 bivalent human heavy-chain-only antibody (HCAb) (antibody, V domains shown)
VH: EVQLVETGGGLIQPGGSLRLSCAVSGFTVSLNYMSWVRQAPGKGLEWVSSIYSGGSTFYADSVKGRFTISRDNSKNTLYLQMNSLRAEDTAVYYCARGLGFGELPPFDFWGQGTLVTVSS
B5 had an EC50 in assay [1] of 3.22 ng/mL.

The values above are taken from PMC9990171 (2023).
